Data from paper PMC9695703, “Selection of an Aptamer against the Enzyme 1-deoxy-D-xylulose-5-phosphate Reductoisomerase from Plasmodium falciparum”.

How the values were obtained:
EcDXR-6His = molecular target: T1, EcDXR-6His (Escherichia coli, UniProt P45568 1-398); experiment: bead-based flow cytometry saturation binding; protein on latex beads; Bmax 1.67; Kd: PBS pH 7.4, 60 min, dark, 0.3-5.4 uM aptamer; EMSA: 10 mM NaCl, 0.02% Tween-20, 50 mM HEPES pH 8.0, RT 60 min, 2% agarose 0.5x TB; conditions: protein: recombinant; tags: C-term 6xHis; label: 5' 6FAM; folded 90/5/37 C before use
T1 sequence: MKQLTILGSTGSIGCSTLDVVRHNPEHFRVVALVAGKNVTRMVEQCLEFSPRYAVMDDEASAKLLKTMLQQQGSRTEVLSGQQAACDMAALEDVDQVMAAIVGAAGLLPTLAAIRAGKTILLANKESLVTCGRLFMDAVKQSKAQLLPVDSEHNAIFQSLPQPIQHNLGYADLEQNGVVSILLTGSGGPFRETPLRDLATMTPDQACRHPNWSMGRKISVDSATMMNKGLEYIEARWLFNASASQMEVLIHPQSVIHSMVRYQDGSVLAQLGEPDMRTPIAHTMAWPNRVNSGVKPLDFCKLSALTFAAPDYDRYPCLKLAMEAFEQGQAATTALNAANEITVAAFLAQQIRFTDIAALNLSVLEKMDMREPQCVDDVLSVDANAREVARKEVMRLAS

[1] = molecular target: T2, 6His-GST-PfDXRt-6His (1-deoxy-D-xylulose-5-phosphate reductoisomerase) (Plasmodium falciparum, UniProt Q8IKG4 73-488); experiment: bead-based flow cytometry saturation binding; protein on latex beads; Bmax 0.79; conditions: protein: recombinant; tags: N-term 6xHis-GST, C-term 6xHis; label: 5' 6FAM; folded 90/5/37 C before use
T2 sequence: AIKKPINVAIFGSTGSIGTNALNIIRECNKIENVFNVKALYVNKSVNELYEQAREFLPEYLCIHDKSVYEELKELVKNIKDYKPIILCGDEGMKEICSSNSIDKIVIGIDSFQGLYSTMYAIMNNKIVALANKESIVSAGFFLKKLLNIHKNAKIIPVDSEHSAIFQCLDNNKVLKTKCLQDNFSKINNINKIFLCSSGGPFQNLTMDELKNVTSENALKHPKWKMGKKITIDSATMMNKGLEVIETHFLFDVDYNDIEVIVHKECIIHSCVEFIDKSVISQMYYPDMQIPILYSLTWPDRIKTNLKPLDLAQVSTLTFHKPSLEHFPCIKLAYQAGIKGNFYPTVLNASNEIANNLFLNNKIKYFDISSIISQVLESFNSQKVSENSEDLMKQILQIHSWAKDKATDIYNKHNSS

B1: 6FAM-D10 (ssDNA)
DNA: ATACCAGCTTATTCAATTCACTGCCACACCACGCCCTGCCATCCGCACATCCATCGTGAGATAGTAAGTGCAATCT
B1 was tested, and the Kd (EcDXR-6His) was 290 ± 90 nM and the Kd [1] was 260 ± 70 nM.
